The results in this text go back to PMC10786891, “Massively parallel profiling of RNA-targeting CRISPR-Cas13d”.

One may read the Kd as a measure of binding affinity in units of concentration. A high value points to a looser complex.

T1: EsCas13d, nuclease-dead (Eubacterium siraeum, UniProt B0MS50, R295A;H300A;R849A;H854A)
T1 sequence: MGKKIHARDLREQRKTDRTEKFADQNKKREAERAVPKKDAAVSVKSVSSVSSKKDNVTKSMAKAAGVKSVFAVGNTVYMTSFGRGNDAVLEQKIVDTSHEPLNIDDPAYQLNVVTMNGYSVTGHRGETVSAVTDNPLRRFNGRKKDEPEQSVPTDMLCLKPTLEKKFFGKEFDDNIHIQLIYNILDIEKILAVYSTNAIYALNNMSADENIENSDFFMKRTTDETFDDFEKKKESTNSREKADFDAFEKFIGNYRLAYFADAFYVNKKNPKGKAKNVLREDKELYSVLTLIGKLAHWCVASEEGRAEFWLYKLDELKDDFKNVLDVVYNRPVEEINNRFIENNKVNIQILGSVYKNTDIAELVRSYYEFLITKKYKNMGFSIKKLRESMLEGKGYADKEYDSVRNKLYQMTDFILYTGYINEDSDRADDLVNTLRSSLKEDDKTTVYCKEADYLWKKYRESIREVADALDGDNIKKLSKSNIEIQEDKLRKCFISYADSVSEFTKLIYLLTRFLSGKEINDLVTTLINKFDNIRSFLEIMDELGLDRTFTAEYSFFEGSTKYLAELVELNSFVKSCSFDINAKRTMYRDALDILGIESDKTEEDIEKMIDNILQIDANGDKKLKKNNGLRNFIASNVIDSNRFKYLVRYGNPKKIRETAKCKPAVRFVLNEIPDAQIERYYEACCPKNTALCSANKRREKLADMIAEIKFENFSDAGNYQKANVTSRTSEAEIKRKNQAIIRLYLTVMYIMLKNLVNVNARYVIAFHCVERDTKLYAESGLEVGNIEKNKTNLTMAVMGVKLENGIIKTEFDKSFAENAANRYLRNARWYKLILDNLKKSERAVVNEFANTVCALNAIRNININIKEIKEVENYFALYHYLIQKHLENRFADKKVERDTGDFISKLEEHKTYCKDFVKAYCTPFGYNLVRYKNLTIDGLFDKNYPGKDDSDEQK

B1: target 1 insG 3' of 16,insA 3' of 3 (mixed)
RNA 1: CACCCGUGCAAAAAUGCAGGGGUCUAAAACUGAGCGGAUAACCUCUCUAUGG
RNA 2: GGGAAUGGAUCCACAUCUACGAAUUCGUACCAUAGAGGAGGUUAUCCGCUACACCGAGAUCGGAAGAGCACACGU
B2: target 1 G12C,G13A (mixed)
RNA 1: B1 RNA 1
RNA 2: GGGAAUGGAUCCACAUCUACGAAUUCGUACCAUAGAGAACUUAUCCGCUCACCGAGAUCGGAAGAGCACACGU
B3: target 1 A1U,C22U (mixed)
RNA 1: B1 RNA 1
RNA 2: B2 RNA 2 with C30U, A39G, C40G, A51U
B4: target 1 U11C,G12C (mixed)
RNA 1: B1 RNA 1
RNA 2: B2 RNA 2 with A39G, U41C
B5: target 1 insU 3' of 12,insG 3' of 7 (mixed)
RNA 1: B1 RNA 1
RNA 2: B1 RNA 2 with G38A, A39G, G41U, C47G, G48C, C49G, U50C, A51U
B6: target 1 insG 3' of 21,insG 3' of 9 (mixed)
RNA 1: B1 RNA 1
RNA 2: GGGAAUGGAUCCACAUCUACGAAUUCGUACCGAUAGAGAGGUUAGUCCGCUCACCGAGAUCGGAAGAGCACACGU
B7: target 1 U19C,A20C (mixed)
RNA 1: B1 RNA 1
RNA 2: B2 RNA 2 with A32C, U33C, A39G, C40G
B8: target 1 C4U,U10G (mixed)
RNA 1: B1 RNA 1
RNA 2: B2 RNA 2 with A39G, C40G, U42G, C48U
B9: target 1 insG 3' of 3,insC 3' of 3 (mixed)
RNA 1: B1 RNA 1
RNA 2: GGGAAUGGAUCCACAUCUACGAAUUCGUACCAUAGAGAGGUUAUCCGCUGCCACCGAGAUCGGAAGAGCACACGU
B10: target 1 A1U,U11C (mixed)
RNA 1: B1 RNA 1
RNA 2: B2 RNA 2 with A39G, C40G, U41C, A51U
B11: target 1 insU 3' of 21,insG 3' of 19 (mixed)
RNA 1: B1 RNA 1
RNA 2: GGGAAUGGAUCCACAUCUACGAAUUCGUACCUAUGAGAGAGGUUAUCCGCUCACCGAGAUCGGAAGAGCACACGU
B12: target 1 insG 3' of 10,insU 3' of 5 (mixed)
RNA 1: B1 RNA 1
RNA 2: B9 RNA 2 with A43G, U44A, C45U, G47C, C48G, G50C, C51U
B13: target 1 U11A,G17A (mixed)
RNA 1: B1 RNA 1
RNA 2: B2 RNA 2 with G35A, A39G, C40G, U41A
B14: target 1 A1C,G13C (mixed)
RNA 1: B1 RNA 1
RNA 2: B2 RNA 2 with A39C, C40G, A51C
B15: target 1 insC 3' of 9,insC 3' of 8 (mixed)
RNA 1: B1 RNA 1
RNA 2: B9 RNA 2 with U44C, C45U, G47C, U49G, G50C, C51U

Changes are numbered by the printed parent chain. In names and notes the source's numbering stands.

For the data set, the target named is T1, EsCas13d, nuclease-dead. Nature of the data set: crRNA (strand 1, pre-loaded); Mg2+; 40 mM Tris-HCl pH 7.5, 150 mM NaCl, 6 mM MgCl2, 1 mM DTT, 0.1% Tween-20, 0.2 mg/ml BSA; 25 C; 10 min per concentration, then washed. The conditions noted are these: tags: His6-TwinStrep-SUMO cleaved; N-terminal SNAP kept (SNAP-Surface 488); label: 3' end held by stalled T7 RNA polymerase.
B1 showed a Kd of 17.7 ± 1.2 nM.
Then B2, with 9.5 ± 0.5 nM.
Take B3: the Kd is 17 ± 2.6 nM.
Molecule B4 registered a Kd of 17.1 ± 2.1 nM.
In the case of B5, binding was characterised by a dissociation constant (Kd) of 6.8 ± 0.4 nM.
Then B6, with 70 ± 17 nM; and B7, with 94 ± 29 nM.
As to B8, the Kd worked out at 18.5 ± 1.9 nM.
The molecule B9 came in with a Kd of 11.4 ± 0.4 nM.
Then B10, with 9.3 ± 1 nM.
Molecule B11 gave a Kd of 73 ± 9 nM.
Take B12: binding was put at a Kd of 43 ± 11 nM.
Molecule B13 returned a Kd of 91 ± 13 nM.
Turning to B14, binding was put at a Kd of 47 ± 11 nM.
The molecule B15 came in with a Kd of 19.9 ± 1.4 nM.
